{"source": "paper PMC4428439", "about": "“Anti-adaptors use distinct modes of binding to inhibit the RssB-dependent turnover of RpoS (σ^S) by ClpXP” (Frontiers in Molecular Biosciences, 2015)", "binders": {"B1": {"name": "RssB, full-length, untagged, purified (natural protein, E. coli, UniProt P0AEV1 1-337, looked up)", "chain": "MTQPLVGKQILIVEDEQVFRSLLDSWFSSLGATTVLAADGVDALELLGGFTPDLMICDIAMPRMNGLKLLEHIRNRGDQTPVLVISATENMADIAKALRLGVEDVLLKPVKDLNRLREMVFACLYPSMFNSRVEEEERLFRDWDAMVDNPAAAAKLLQELQPPVQQVISHCRVNYRQLVAADKPGLVLDIAALSENDLAFYCLDVTRAGHNGVLAALLLRALFNGLLQEQLAHQNQRLPELGALLKQVNHLLRQANLPGQFPLLVGYYHRELKNLILVSAGLNATLNTGEHQVQISNGVPLGTLGNAYLNQLSQRCDAWQCQIWGTGGRLRLMLSAE", "notes": "RssB (SprE), adaptor protein of ClpXP, E. coli; residues 1-337 by the printed domain limits; Monomeric and dimeric RssB were separated by preparative SEC; degradation assays used monomeric RssB; also called SprE; full-length RssB; source: E. coli, Ub-fusion system, purified (IMAC, preparative SEC)"}}, "key": {"[1]": {"biological_target": "the molecule itself", "experiment": "SEC; Superdex 75; 5 nmol of IraD, RssBN or the IraD-RssBN complex; chilled GF buffer (20 mM Tris-HCl pH 7.5, 10 mM MgCl2, 0.1 mM EDTA, 1 mM DTT, 140 mM NaCl, 5% glycerol, 0.005% Triton X-100); fractions on SDS-PAGE, CBB"}, "[2]": {"biological_target": "B1", "experiment": "pull-down; purified His10-tagged IraD immobilised on Ni-NTA agarose beads; purified untagged RssB, RssBN or RssBC added; washed, eluted with imidazole; SDS-PAGE, CBB", "conditions": "both partners purified"}, "[3]": {"biological_target": "T1, RssBC, C-terminal domain of RssB (residues 131-337), untagged, purified (E. coli, UniProt P0AEV1 131-337)", "T1 construct": "RssB, E. coli, C-terminal effector domain, residues 131-337; also called C-terminal effector domain of RssB; source: E. coli, Ub-fusion system, purified (IMAC, SEC)", "T1 sequence (looked up)": "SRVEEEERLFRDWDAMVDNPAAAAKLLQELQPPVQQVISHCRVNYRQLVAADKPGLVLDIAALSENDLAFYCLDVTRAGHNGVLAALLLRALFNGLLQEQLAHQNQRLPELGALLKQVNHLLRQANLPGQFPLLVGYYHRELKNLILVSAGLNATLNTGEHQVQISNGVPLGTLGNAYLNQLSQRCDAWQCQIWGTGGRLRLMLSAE", "experiment": "pull-down; purified IraP immobilised on Ni-NTA agarose beads via a C-terminal His10-tag; purified RssB, RssBN or RssBC added; washed, eluted with imidazole; immunoblotting", "conditions": "both partners purified"}, "[4]": {"biological_target": "the molecule itself", "experiment": "SEC; preparative grade SEC in the purification of untagged RssB, separating monomeric and dimeric RssB"}}, "data": [{"binder": "His10-tagged IraD (natural protein, E. coli, UniProt P39375 1-130, looked up, IraD, anti-adaptor induced by DNA damage, E. coli; source: E. coli, overexpressed, purified (essentially as Bougdour et al., 2008)) MMRQSLQAVLPEISGNKTSSLRKSVCSDLLTLFNSPHSALPSLLVSGMPEWQVHNPSDKHLQSWYCRQLRSALLFHEPRIAALQVNLKEAYCHTLAISLEIMLYHDDEPLTFDLVWDNGGWRSATLENVS", "values": [{"measurement": "stoichiometry N", "setting": "[1]", "result": 2}, {"measurement": "binding result", "setting": "[2]", "result": "binds"}]}, {"binder": "IraP with a C-terminal His10-tag, purified (natural protein, E. coli, UniProt P0AAN9 1-86, looked up, IraP, anti-adaptor induced by phosphate starvation, E. coli; also called His10-tagged IraP; source: E. coli, overexpressed, purified (essentially as Bougdour et al., 2008); not shown: His10, C-terminal, kept) MKNLIAELLFKLAQKEEESKELCAQVEALEIIVTAMLRNMAQNDQQRLIDQVEGALYEVKPDASIPDDDTELLRDYVKKLLKHPRQ", "values": [{"measurement": "binding result", "setting": "[3]", "result": "binds"}]}, {"binder": "RssBN, N-terminal domain of RssB (residues 1-129), untagged, purified (domain or fragment, E. coli, UniProt P0AEV1 1-129, looked up, RssB, E. coli, N-terminal domain, residues 1-129; also called N-domain of RssB; receiver domain; source: E. coli, Ub-fusion system, purified (IMAC, SEC)) MTQPLVGKQILIVEDEQVFRSLLDSWFSSLGATTVLAADGVDALELLGGFTPDLMICDIAMPRMNGLKLLEHIRNRGDQTPVLVISATENMADIAKALRLGVEDVLLKPVKDLNRLREMVFACLYPSMF", "values": [{"measurement": "stoichiometry N", "setting": "[1]", "result": 2}]}, {"binder": "B1", "values": [{"measurement": "stoichiometry N", "setting": "[4]", "result": 2}]}]}
